Data set [1] concerns the target meprin α R372A (human (from the printed accession Q16819)) (UniProt Q16819). Kind of data set: mass photometry; single-molecule mass measurement, 20 °C; low concentration (10 nM in the results, roughly 2-5 nM in the methods); association of homodimers through the helical interface; N counts subunits.
For data set [2] the target is unchanged. Kind of data set: electron microscopy; variants imaged, concentration not stated (below the high concentration of 3 µM); N counts subunits.
For data set [3], the target named is meprin α wild type (V22-S600 construct; zymogen or activated form not told for the experiment) (human (from the printed accession Q16819)) (UniProt Q16819). Kind of data set: MALDI-TOF mass spectrometry; linear positive mode, DHAP matrix; shows only covalently (disulphide) linked species; N counts subunits.
For data set [4], the target named is meprin α R372T (human (from the printed accession Q16819)) (UniProt Q16819). The description is as above.
The target is the same in data set [5]. Kind of data set: electron microscopy; variants imaged, concentration not stated (below the high concentration of 3 µM); N counts subunits.
Data set [6] concerns the molecule itself. Kind of data set: cryo-EM structure; meprin α alone (zymogen or active form), helical filament of covalent homodimers; 30 mM Tris, 100 mM NaCl, pH 7.4; pseudo single-particle analysis of filament segments.

We go through four molecules from publication PMC9581967, “Helical ultrastructure of the metalloprotease meprin α in complex with a small molecule inhibitor” (Nature Communications, 2022).

The stoichiometry N is a count of units in the complex or per binding partner.

As to “meprin α R372A (from UniProt Q16819 22-600) (enzyme)”, the stoichiometry N in data set [1] was determined as 4; in data set [2] it was 2.
In data set [3], “meprin α wild type (V22-S600 construct; zymogen or activated form not told for the experiment) (from UniProt Q16819 22-600) (enzyme)” displayed a stoichiometry N of 2.
On to “meprin α R372T (from UniProt Q16819 22-600) (enzyme)”, for which the stoichiometry N in data set [4] and in data set [5] was 2 each time.

B1: pro-meprin α (V22-S600), wild type zymogen (enzyme, UniProt Q16819 22-600, looked up)
chain: VPIKYLPEENVHDADFGEQKDISEINLAAGLDLFQGDILLQKSRNGLRDPNTRWTFPIPYILADNLGLNAKGAILYAFEMFRLKSCVDFKPYEGESSYIIFQQFDGCWSEVGDQHVGQNISIGQGCAYKAIIEHEILHALGFYHEQSRTDRDDYVNIWWDQILSGYQHNFDTYDDSLITDLNTPYDYESLMHYQPFSFNKNASVPTITAKIPEFNSIIGQRLDFSAIDLERLNRMYNCTTTHTLLDHCTFEKANICGMIQGTRDDTDWAHQDSAQAGEVDHTLLGQCTGAGYFMQFSTSSGSAEEAALLESRILYPKRKQQCLQFFYKMTGSPSDRLVVWVRRDDSTGNVRKLVKVQTFQGDDDHNWKIAHVVLKEEQKFRYLFQGTKGDPQNSTGGIYLDDITLTETPCPTGVWTVRNFSQVLENTSKGDKLQSPRFYNSEGYGFGVTLYPNSRESSGYLRLAFHVCSGENDAILEWPVENRQVIITILDQEPDVRNRMSSSMVFTTSKSHTSPAINDTVIWDRPSRVGTYHTDCNCFRSIDLGWSGFISHQMLKRRSFLKNDDLIIFVDFEDITHLS
modifications: N-linked glycosylations
notes: meprin α, UniProt Q16819, residues V22-S600 (native signal peptide omitted, stop codon after S600; lacks the EGF-like and transmembrane regions); pro-peptide still on the chain; Disulphide-linked (C308) homodimer; the homodimers join non-covalently into a helical filament; Secreted through the BiP signal peptide of pMT/BiP/V5; also called latent state; meprin α ectodomain; source: Schneider-2 …
Consider B1, for which the binding result in data set [6] is given as “binds”.
